Test results as given in patent publication US20150160214A1, “Quantitation of Cellular Adhesion Dynamics Across Immobilized Receptors Under Rheological Shear Flow” (Mayo Foundation for Medical Education and Research, priority 2013, published 2015).
“Also recorded” adds a separate entry of the source. Each block holds one molecule with its values, some of them ahead of it.

What was measured:
Solubility (observation) = assay type: physicochemical
[1] = Irreversible thermal denaturation by CD, intrinsic fluorescence and ANS fluorescence (Example 2); assay type: physicochemical
Experimental: The unfolding of disulfide-intact A1 and RCAM A1 was also monitored via CD at 222 nm, intrinsic protein fluorescence at 280 nm/359 nm and ANS fluorescence at 350 nm/495 nm as a function of temperature.
CD thermalscans were recorded between 10 and 95° Celsius at 222 nm with a protein concentration of 1 μM in a 1 cm quartz cell under moderate stirring. Prior to each measurement protein samples were equilibrated at 10° Celsius for 10-15 min in order to obtain a stable baseline. The scanrate for all Thermalscans was 2° Celsius/min. The integration time for each data point was 20 s, the bandwidth 1 nm. All measured CD data were converted into mean molar ellipticities per amino acid residue.
Thermalscans monitoring protein fluorescence were recorded at an emission wavelength of 359 nm after excitation at 280 nm using a protein concentration of 2 μM in a 1 cm quartz cell under moderate stirring. ANS-Thermalscans were recorded at 495 nm after Excitation at 350 nm using 1 μM protein and 100 μM ANS. Prior to any performed thermalscan samples were equilibrated for 10-15 min. The scanrate was 2° Celsius/min. At each temperature between 10 or 20° Celsius and 95° Celsius relative fluorescence intensity was collected for 4 s and averaged.

[2] = GdnHCl- and urea-induced unfolding at 25° C. by circular dichroism (Example 2); assay type: physicochemical; conditions: GdnHCl, CD
Experimental: The thermodynamic stability of A1 and of RCAM A1 was determined from GdnHCl and urea induced unfolding measured via CD and FL at 25° Celsius (FIG. 14). […] Complete unfolding of A1 and of RCAM A1 occurs in GdnHCl but not in urea. However, in presence of urea, a small expansion of RCAM A1 compared to A1 in its intermediate state is observed.
(§1) Urea and GdnHCl induced unfolding of A1 and of RCAM A1 at 25° Celsius was monitored via CD at 222 nm on an Aviv Biomedical Model 420C circular dichroism spectrometer. A 1 mm quartz cuvette and protein concentrations of 5 or 10 μM were used. Samples were equilibrated in their urea or GdnHCl containing buffer at 25° Celsius overnight. CD-signal was averaged for 5 to 10 min using an integration time of 1 s. CD-spectra were measured at 20° Celsius using 0.1 or 1 mm quartz cells with a step width of 1 nm between 190 and 260 nm with an integration time of 20 s and a bandwidth of 1 nm. CD-spectra in the near UV range (260-360 nm) were recorded using a 5 cm quartz cell with a 120 s integration time. Transition curves and protein spectra were corrected for the CD Signal of the corresponding buffer.

[3] = Acrylamide quenching of tryptophan fluorescence (Stern-Volmer); assay type: physicochemical; conditions: buffer, 20° Celsius
Experimental: This was also confirmed via acrylamide induced tryotophan fluorescence quenching performed with an excitation wavelength of 295 nm.
Initially a quenching determination was performed with disulfide-intact A1 at 20° Celsius and at 1° Celsius in order to distinguish between static and collisional quenching. […] Clear evidence for collisional quenching could be obtained for the A1-domain since the Stern-Volmer constant decreased from 2.6±0.03 to 2.2±0.03 M−1, FIG. 16A, ruling out a static quenching mechanism.
Acrylamide quenching of tryptophan was performed using an excitation wavelength of 295 nm. After the addition of a certain amount of buffered acrylamide solution the protein solution was equilibrated for ˜5 min and then a fluorescence spectrum between 320 and 400 nm was recorded. Stern-Volmer constants were determined from the fluorescence intensity at 359 nm using the Stern-Volmer equation as described by Lakowicz (Lakowicz:2006)
where KD is the Stern-Volmer quenching constant and KD-1 is the concentration of acrylamide at which F0/F=2 and 50% of the fluorescence intensity is quenched.

platelet GPIbα = biological target: T1, platelet GPIbα (Homo sapiens, UniProt P07359); assay: Platelet adhesion to surface captured disulfide-intact A1 and RCAM A1 under shear flow (Example 2); assay type: cell-based
T1 construct: endogenous in cells; host or cells: platelets in citrated whole blood of normal healthy volunteer donors
Experimental: The interaction of disulfide-intact A1 and of RCAM A1 with platelets was studied by immobilizing the proteins via the 6×His-Tag on Cellix biochips in which the internal channel surface was coated with a Cu2+ chelating chemistry. A 5 μM concentration of protein was immobilized in the biochip and citrated whole blood was perfused at a shear rate of 800 s−1 (FIG. 11B). This perfusion was followed by TBS buffer and after red blood cells cleared the channel, the shear was decremented to 100 s−1 or incremented to 9000 s−1 every two minutes at logarithmic intervals. Surface bound platelets were allowed to equilibrate at a given shear rate for 50 s and a 60 s video at 24 frames per second was recorded and analyzed as described in the methods. The internal channel surface lacking immobilized A1 domain was completely inert to platelets.
At each shear rate, platelet mean pause times and mean translocation velocities were calculated from the X-Y trajectories of moving platelets as described in the methods. Approximately 1000 platelet trajectories were analyzed at each shear rate (FIGS. 11B to 11D). The mean pause times were also calculated from the pause time survival fraction obtained from the cumulative integral of the pause time distribution (FIG. 11B) (Thomas:2006). The survival fraction exponentially decreases with faster decay rates as shear increases. Fitting the survival fraction with a bi-exponential decay function results in the apparent rate constants and amplitudes as a function of shear rate (FIG. 11C).
The determination and analysis of platelet pause times and instantaneous translocation velocities over surface captured A1 and RCAM A1 was performed as previously described (Tischer:2013). Here, the inventor used the Cellix Mims Evo syringe pump controlled by VenaFluxAssay (www.cellixltd.com). Vena8™ CGS biochips were custom designed with 800 μm width by 80 μm height microchannels bonded to glass slides with a Cu^2+ chelated PEG surface serviced by Microsurfaces Inc. (www.proteinslides.com/histag.html) to which the A1 and RCAM A1 in TBS were captured by the 6×His-Tag at a total concentration of 5 μM. Citrated whole blood was obtained from the informed consent of healthy volunteer donors with approval from the Mayo Clinic Institutional Review Board and 100 μL was perfused over the surface captured A1 domains at […]. The shear was increased or decreased in a stepwise manner to measure the dynamics of platelet adhesion at high and low shear. After allowing the flow chamber to equilibrate for 50 s at each shear rate, 1 min movies were recorded at 24 frames per second in phase contrast at 200× magnification with 2×2 pixel binning on a Zeiss AxioCam Mrm camera (6.45 μm/px) attached to a Zeiss Axio Observer.D1 inverted microscope. Tracking analysis was performed using MediaCybernetics ImagePro® Premier (www.mediacy.com/index.aspx?page=IP\_Premier) The distance travelled in the direction of flow was calculated from the coordinate data for each platelet as a function of time using √{square root over ((xt−x0)^2)}, where x0 is the coordinates of a platelet on the first frame of the movie and xt is the coordinate on subsequent frames of the movie. These trajectories were differentiated into instantaneous velocities using a Savitzky-Golay algorithm (Savitzky:1964) with a five data point window size and a second order polynomial implemented into a Mathematica (www.wolfram.com/mathematica) notebook written in our lab. Trajectories were retained for statistical analysis if the platelet was present for ≧1 s and travelled a total distance greater than 1 Distance travelled in pixels (px) was converted to (μm) using 6.45 μm/px*2/200=0.0645 μm/px. Pause times were determined by the amount of time (sec) a platelets velocity was 0±4 px/s≅0±0.23 μm/s, within the noise. Data are reported as mean velocities and pause times attained by individual platelets averaged over all platelets analyzed. […]

[4] = Secondary structure contribution calculated from CD-spectra (CDNN); assay type: physicochemical; conditions: calculated from CD-spectra, CDNN
Experimental: Fluorescence and circular dichroism spectra of A1 and of RCAM A1 were measured to compare the basic spectroscopic properties of the two protein variants (FIG. 13). The fluorescence spectrum of native A1 has a relatively low intensity with λmax of ˜345 nm. In presence of 2 M GdnHCl the fluorescence intensity increases as the interior of the protein becomes solvent accessible and a red shift of the spectrum to ˜351 nm occurs. […] Nevertheless, RCAM A1 is still retains significant secondary structure content in solution; the distribution of which is summarized in Table 1. In the near UV, the CD of disulfide-intact A1 show a well-defined spectral banding pattern between 260 and 300 nm indicating significant tertiary structure content that is absent in RCAM A1.
as §1

[5] = biological target: T2, Recombinant human vWF A1-1261 (amino acids D1261-P1471), N-terminal truncated variant (human, UniProt P04275 1261-1471); assay: thermal unfolding enthalpy of 2 µM A1-1261 (Trp fluorescence) against peptide concentration, single site binding model
T2 construct: Lacks the linker residues Q1238-E1260; also called truncated A1
Description: (§2) The only way to examine such a stabilization using spectroscopy was the measurement of thermal unfolding via fluorescence. Since the N-terminal peptide also contains a single tyrosine residue, the excitation wavelength was changed to λ=295 nm in order to measure tryptophan fluorescence and the effect of the peptide on the unfolding of the A1-domain was observed indirectly. […] Thermal scans were also done in the presence of a peptide with the same amino acid composition, but a scrambled sequence. The inset of FIG. 7A compares the raw fluorescence thermal scans in the presence of 300 μM scrambled and N-terminal peptides. Unfolding in the presence of excess scrambled peptide was equivalent to unfolding in the absence of either peptide. […] Fitting the enthalpy data to a simple single site binding model yields a dissociation constant of ≈46±6 μM.

[6] = biological target: T2, Recombinant human vWF A1-1261 (amino …); assay: thermal unfolding by Trp fluorescence, 0.02-300 µM peptide; value at saturating peptide
Description: as §2

[7] = biological target: T3, Recombinant human vWF A1-1238 (amino acids Q1238-P1471) (human, UniProt P04275 1238-1471); assay: unfolding enthalpy from fluorescence thermal scans of A1-1238 against total peptide concentration
T3 construct: captured on Cu2+ chelate surfaces by the His tag in the flow chamber assays; also called WT A1; disulfide-intact A1; not shown: N-terminal 6xHis-Tag from the Qiagen pQE-9 vector

[8] = biological target: T2, Recombinant human vWF A1-1261 (amino …); assay: unfolding enthalpy from fluorescence thermal scans of 2 µM A1-1261 against total peptide concentration
Description: as §2

[9] = biological target: T2, Recombinant human vWF A1-1261 (amino …); assay: thermal unfolding by Trp fluorescence at 2 °C/min; value at saturating peptide
Description: as §2

[10] = biological target: T2, Recombinant human vWF A1-1261 (amino …); assay: thermal unfolding by Trp fluorescence at 2 °C/min; value without peptide
Description: as §2

[11] = biological target: T2, Recombinant human vWF A1-1261 (amino …); assay: thermal unfolding by Trp fluorescence, 0.02-300 µM peptide; value without peptide
Description: as §2

Total number of platelets interacting, relative to disulfide-intact A1 (platelet GPIbα): less, by approximately half
Velocity of a platelet translocating on the domain (platelet GPIbα; 1025 s−1): statistically zero
Molecule: RCAM A1: vWF A1 domain (Q1238-P1471) with disulfide bond reduced and carboxyamidated; molten globule model of intermediate state
Solubility (Solubility (observation)): low solubility
Cooperative thermal unfolding transition ([1]; CD, intrinsic fluorescence and ANS fluorescence): absent
Temperature at which protein aggregation begins in thermal scan ([1]; absence of urea): ~40 ° Celsius
cm, I ⇄ D [2]: 3.83 ± 0.03 M
m-value, I ⇄ D [2]: −7.49 ± 0.49 kJ/mol/M
ΔG^0, I ⇄ D [2]: 6.857 ± 0.452 kcal/mol
Stern-Volmer constant [3]: 5.6 ± 0.4 M⁻¹
Platelet translocation on surface-immobilized domain (platelet GPIbα; all applied shear rates, up to 9000 s−1): did not translocate across the surface at all applied shear rates; also recorded: firm adhesion with no platelet translocation
% α-Helix [4]: 25%
% β-sheet [4]: 22%

Kd [5]: ~46 µM
unfolding enthalpy of A1-1261 without and with saturating peptide [6]: 57.8 kcal/mol
binding result [7]: no binding (tested: 100 µM)
EC50 (read off the curve) [8]: ~30 µM
unfolding enthalpy of A1-1261 without and with saturating peptide [11]: 47.1 kcal/mol
B1: N-terminal peptide (QEPGGLVVPPTDAPVSPTTLYVE) corresponding to vWF residues Q1238-E1260 (peptide)
peptide: H-QEPGGLVVPPTDAPVSPTTLYVE-OH
notes: Synthetic peptide; also called free N-terminal peptide; N-terminal linker peptide
apparent TM of A1-1261 without and with saturating peptide [9]: 55.5 ° Celsius
apparent TM of A1-1261 without and with saturating peptide [10]: 53 ° Celsius
